Results reported in patent US20050037969A1 (ARBOR VITA, published 2005).
Ends that are not written are not given here. * marks the point of attachment. Biotin = O=C1N[C@H]2[C@H](CS[C@H]2CCCCC(=O)*)N1

Key:
Experiment in all cases: A/G assays
[1] = biological target: T1, GST-cytohesin binding protein PDZ domain fusion protein (Homo sapiens (Human), UniProt O60759 74-165)
T1 construct: also called CBP; not shown: glutathione S-transferase encoded by vector pGEX-3X (Pharmacia)
T1 sequence: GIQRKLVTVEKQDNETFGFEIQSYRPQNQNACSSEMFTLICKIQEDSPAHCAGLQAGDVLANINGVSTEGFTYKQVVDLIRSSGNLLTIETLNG

[2] = biological target: T2, MINT3 PDZ-GST fusion protein
T2 construct: Order of GST and PDZ part and limits not seen in the excerpts
T2 chain: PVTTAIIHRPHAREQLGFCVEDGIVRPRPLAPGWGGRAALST

[3] = biological target: T3, GST-LIM protein PDZ domain fusion protein (Human, UniProt Q96HC4 2-85)
T3 construct: also called Human LIM protein; not shown: glutathione S-transferase encoded by vector pGEX-3X (Pharmacia)
T3 sequence: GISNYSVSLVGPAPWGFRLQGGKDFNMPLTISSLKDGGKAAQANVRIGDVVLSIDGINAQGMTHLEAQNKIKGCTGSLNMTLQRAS

[4] = biological target: T4, GST-prIL16 fusion protein (PDZ domains 1-2) (Homo sapiens (Human), UniProt Q14005 1111-1324)
T4 construct: also called putative interleukin 16 precursor; not shown: glutathione S-transferase encoded by vector pGEX-3X (Pharmacia)
T4 sequence: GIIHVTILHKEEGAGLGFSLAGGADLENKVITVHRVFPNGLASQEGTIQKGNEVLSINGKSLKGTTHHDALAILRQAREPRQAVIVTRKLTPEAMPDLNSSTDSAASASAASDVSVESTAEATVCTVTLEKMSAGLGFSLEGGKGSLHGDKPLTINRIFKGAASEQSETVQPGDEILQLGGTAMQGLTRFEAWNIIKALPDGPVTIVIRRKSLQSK

[5] = biological target: T5, K316 PDZ-GST fusion protein (Homo sapiens (Human), UniProt Q14CM0 72-159)
T5 construct: Order of GST and PDZ part and limits not seen in the excerpts
T5 sequence (Q14CM0 72-159 limits assumed): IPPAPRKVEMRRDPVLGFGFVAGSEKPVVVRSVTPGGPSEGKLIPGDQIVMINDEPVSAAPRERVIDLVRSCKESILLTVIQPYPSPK

[6] = biological target: T6, GST-DVL1 PDZ domain fusion protein (human, UniProt O14640 247-339)
T6 construct: also called human dishevelled segment polarity protein homolog; not shown: glutathione S-transferase encoded by vector pGEX-3X (Pharmacia)
T6 sequence: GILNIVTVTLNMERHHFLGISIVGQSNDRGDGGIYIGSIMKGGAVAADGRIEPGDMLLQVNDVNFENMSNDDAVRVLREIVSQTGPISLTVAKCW

[7] = biological target: T7, GST-AF6 PDZ domain fusion protein (Homo sapiens (Human), UniProt P55196 1001-1093)
T7 construct: also called af-6 protein; not shown: glutathione S-transferase encoded by vector pGEX-3X (Pharmacia)
T7 sequence: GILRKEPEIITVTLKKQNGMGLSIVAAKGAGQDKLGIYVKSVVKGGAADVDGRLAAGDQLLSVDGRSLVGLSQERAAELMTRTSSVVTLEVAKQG

[8] = biological target: T8, GEF PDZ-GST fusion protein (Homo sapiens (Human), UniProt Q8TEU7 293-400)
T8 construct: The label GEF is not explained in the excerpts
T8 sequence: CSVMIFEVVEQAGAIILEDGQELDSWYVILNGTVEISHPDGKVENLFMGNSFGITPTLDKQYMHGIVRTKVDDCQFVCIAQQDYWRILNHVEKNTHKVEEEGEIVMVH

[9] = biological target: T9, GST-DLG5 (p-dlg) PDZ domain fusion protein (Human, UniProt Q8TDM6 1343-1583)
T9 construct: also called Human discs large protein p-dlg; not shown: glutathione S-transferase encoded by vector pGEX-3X (Pharmacia)
T9 sequence: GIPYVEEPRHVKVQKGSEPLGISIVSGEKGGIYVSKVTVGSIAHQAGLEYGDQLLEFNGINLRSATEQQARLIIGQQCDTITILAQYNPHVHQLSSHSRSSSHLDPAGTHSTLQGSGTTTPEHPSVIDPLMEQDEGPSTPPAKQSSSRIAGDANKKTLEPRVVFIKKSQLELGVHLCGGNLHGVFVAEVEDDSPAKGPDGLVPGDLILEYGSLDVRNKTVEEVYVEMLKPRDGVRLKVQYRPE

[10] = biological target: T10, SP short PDZ-GST fusion protein (Homo sapiens (Human), UniProt O43464 350-435)
T10 construct: The label SP short is not explained in the excerpts
T10 sequence: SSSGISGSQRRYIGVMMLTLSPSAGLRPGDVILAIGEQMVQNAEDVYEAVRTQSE

[11] = biological target: T11, NSP PDZ-GST fusion protein (Homo sapiens (Human), UniProt Q92743 370-466)
T11 construct: The label NSP is not explained in the excerpts
T11 sequence (Q92743 other isoform, or with tags, fused parts or gaps limits assumed): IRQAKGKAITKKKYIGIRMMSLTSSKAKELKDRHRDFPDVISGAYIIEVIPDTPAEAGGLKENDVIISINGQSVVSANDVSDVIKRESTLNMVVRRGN

[12] = biological target: T12, K858 PDZ-GST fusion protein (Homo sapiens (Human), UniProt Q8WWI1 1038-1131)
T12 construct: Order of GST and PDZ part and limits not seen in the excerpts
T12 sequence: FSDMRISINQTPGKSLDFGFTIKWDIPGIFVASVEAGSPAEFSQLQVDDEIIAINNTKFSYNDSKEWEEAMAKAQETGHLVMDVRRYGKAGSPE

[13] = biological target: T13, PICK1 PDZ-GST fusion protein (Bos taurus (Bovine), UniProt Q2T9M1 17-105)
T13 construct: Order of GST and PDZ part and limits not seen in the excerpts
T13 sequence (Q2T9M1 other isoform, or with tags, fused parts or gaps limits assumed): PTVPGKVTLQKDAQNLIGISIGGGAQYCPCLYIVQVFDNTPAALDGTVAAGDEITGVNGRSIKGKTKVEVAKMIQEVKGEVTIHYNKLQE

[14] = biological target: T14, TAX-IP33 PDZ-GST fusion protein (Homo sapiens (Human), UniProt O14910 103-193)
T14 construct: Order of GST and PDZ part and limits not seen in the excerpts
T14 sequence: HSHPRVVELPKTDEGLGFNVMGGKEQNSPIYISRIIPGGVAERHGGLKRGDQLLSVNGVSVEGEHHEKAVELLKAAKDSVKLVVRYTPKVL

[15] = biological target: T15, GST-TIAM1 PDZ domain fusion protein (Homo sapiens (Human), UniProt Q13009 845-931)
T15 construct: also called TLAM1; T-lymphoma invasion and metastasis inducing protein 1; not shown: glutathione S-transferase encoded by vector pGEX-3X (Pharmacia)
T15 sequence (Q13009 other isoform, or with tags, fused parts or gaps): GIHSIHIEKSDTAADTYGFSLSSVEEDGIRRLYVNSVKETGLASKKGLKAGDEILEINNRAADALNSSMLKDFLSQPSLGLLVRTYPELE

[16] = biological target: T16, GST-KIAA0303 PDZ domain fusion protein (Homo sapiens (Human), UniProt O15021 1138-1228)
T16 construct: also called K303; not shown: glutathione S-transferase encoded by vector pGEX-3X (Pharmacia)
T16 sequence: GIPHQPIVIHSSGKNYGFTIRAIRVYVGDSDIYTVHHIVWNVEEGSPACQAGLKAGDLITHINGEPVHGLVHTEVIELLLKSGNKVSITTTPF

Measured: binding result

Biotin-ARKANMKGSYSLVEAQKSKV (also called CD106) [VCAM1 C-terminal peptide AA17L, biotinylated]
not listed: [15] | [16]
no binding: all other assays above

Biotin-STNHSIGSTQSTPCSTSSMA (also called CD105 (endoglin)) [CD105 C-terminal peptide AA16L, biotinylated]
not listed: [3]
no binding: all other assays above

B1: CD138 C-terminal peptide AA18L, biotinylated (peptide)
peptide: Biotin-PKQANGGAYQKPTKQEEFYA
notes: also called CD138 (syndecan-1); CD138 (syndecan)
not listed: [15]
no binding: all other assays above

Biotin-QFMTADETRNLQNVDMKIGV (also called CD44 (long form)) [CD44 C-terminal peptide AA9L, biotinylated]
not listed: [4]
no binding: all other assays above

Biotin-QGDPALQDAGDSSRKEYFI (also called GC) [Glycophorin C C-terminal peptide AA37L, biotinylated]
not listed: [7]
no binding: all other assays above

Biotin-PYGTAMEKAQLKPPATSDA (also called CD49E (alpha-4)) [CD49E C-terminal peptide AA11L, biotinylated]
no binding: all assays above

Biotin-TTNNNPNSAVNIKKIFTDV [KV1.3 C-terminal peptide AA33L, biotinylated]
not listed: [6]
no binding: all other assays above

Biotin-CAISGTSSDRGYGSPRYAEV (also called AA3L-V) [Clasp-4 C-terminal peptide AA3L, biotinylated]
not listed: [7]
no binding: all other assays above
